# B1: monomeric TRAIL (mTRAIL) extracellular domain (ligand)
# chain: MTSEETISTVQEKQQNISPLVRERGPQRVAAHITGTRGRSNTLSSPNSKNEKALGRKINSWESSRSGHSFLSNLHLRNGELVIHEKGFYYIYSQTYFRFQEEIKENTKNDKQMVQYIYKYTSYPDPILLMKSARNSCWSKDAEYGLYSIYQGGIFELKENDRIFVSVTNEHLIDMDHEASFFGAFLVG
# notes: Expressed in E. coli from pET28a-mTRAIL and purified on Ni-NTA; a vector tag is not spelled out
# Key:
# XIAP = experiment: Western blot of HT29 lysates: XIAP; format: cell-based, human; details: HT29, 24 hours
# Description: (§1) After incubating HT29 cells with 50 nM DOX-TTPNs, DOX-FTNs, free DOX, or buffer for 24 hours, cells were lysed with radioimmunoprecipitation assay (RIPA) buffer (Cell Signaling Technology) and the concentration of proteins was measured using a DC protein assay kit (Bio-Rad). Equal amounts of proteins (30 μg) were resolved by SDS-PAGE and transferred to nitrocellulose membranes. After blocking with 5% skim milk in Tris-buffered saline containing 0.1% Tween-20 (TBST), membranes were incubated first with anti-Cl-PARP, anti-Cl-caspase-6, anti-cFLIP, anti-Bcl-xL, anti-XIAP, anti-Cl-caspase-3, or anti-GAPDH primary antibody (Cell Signaling Technology), and then with anti-mouse or anti-rabbit secondary antibodies (Sigma-Aldrich), as appropriate. Immunoreactive proteins were visualized using enhanced chemiluminescence (ECL) chemical reagents (Bio-Rad) and ChemiDoc (Bio-Rad), and were analyzed using ImageJ software.
# [1] = system: cleaved form of caspase-3; experiment: Western blot of HT29 lysates: cleaved caspase-3; format: cell-based, human; details: HT29, 50 nM, 24 hours
# Description: as §1
# DR5 [2] = experiment: Western blot time course of DR5 levels in HT29; format: cell-based, human; details: HT29, 4, 12 and 24 hours
# [3] = mice (Chatterjee et al.); cited from earlier work
# HT29 cells [4] = experiment: Annexin V early apoptosis flow cytometry, HT29; format: cell-based, human; details: HT29, low concentrations, 24 hours
# Description: (§2) HepG2, HT29, or MCF7 cells (1.5×10^4) were cultured in a 96-well plate for 1 day, after which DOX-TTPNs, DOX-FTNs, free DOX, empty TTPNs, or buffer was added to each well. After 24 hours, cell viability was measured using a CCK-8 assay (Dojindo Molecular Technologies) according to the manufacturer's instructions. For analysis of early apoptosis, HT29 cells in 6-18 well culture plate were treated with DOX-TTPNs, free DOX, empty TTPNs, or buffer for 24 hours. Thereafter, cells were incubated with Alexa Fluor 488-conjugated annexin V (Invitrogen) 20 for 15 minutes, then analyzed using an Accuri™ C6 flow cytometer (BD Biosciences) and FlowJo 21 v10 software.
# HT29 tumor [5] = experiment: TUNEL analysis of HT29 tumor tissue; format: in vivo, mouse; details: HT29 tumor tissue at the end of the study
# HT29 tumor [6] = experiment: Antitumor efficacy, HT29 xenograft; format: in vivo, mouse; details: i.v. five times every 2 days, DOX-TTPNs 30 mg/kg, DOX 0.4 mg/kg, DOX-FTNs 15 mg/kg, empty TTPNs 30 mg/kg
# HT29 cells [7] = experiment: Cell viability, CCK-8 assay, HT29; format: cell-based, human; details: HT29, 250 nM (DOX 3.5 μg/ml), 24 hours
# Description: as §2
# PARP = experiment: Western blot of HT29 lysates: PARP; format: cell-based, human; details: HT29, 24 hours
# Description: as §1
# HepG2 cells [8] = experiment: Annexin V/PI flow cytometry of apoptosis, HepG2; format: cell-based, human; details: for surviving tumor cells (Annexin V/PI double negative): 24 hours
# Description: FIG. 19 is a series of histograms representing flow cytometry analysis of TRAIL-mediated apoptosis of HepG2 cells as an analysis of in vitro TTPN-mediated apoptosis on TRAIL-sensitive-HepG2 cells. Cells were incubated for 24 hours in the presence of different concentrations of mTRAIL and TTPN and analyzed by Annexin V/PI double staining.
# In addition, to investigate whether apoptosis induced by TTPN is induced by the pro-apoptosis pathway of tumor cells, fluorescence-activated cell sorting (FACS) using double staining of Annexin V/propidium iodide (PI) was performed. […] (FIG. 21).
# HepG2 cells [9] = experiment: Cell viability, CCK-8 assay, HepG2; format: cell-based, human; details: HepG2
# Description: After culturing for 24 hours, cell viability was measured using a cell counting kit (CCK)-8 assay (Dojindo Molecular Technologies, Gaithersburg, Md.). The plate was then read with an absorbance microplate reader (Spectramax 340, Molecular Devices Corporation) at a wavelength of 450 nm and 50% effective by regression analysis using SigmaPlot software (Systat Software, Inc., San Jose, Calif.). The concentration value was calculated.
# [10] = In vitro stability (soluble protein in buffer over time); format: physicochemical
# Description: The stability of TTPN, DOX-TTPN and mTRAIL was investigated by measuring changes of concentration in a suitable buffer solution. […] At predetermined times, aggregated proteins were collected at 13,000 rpm for 10 minutes, and the concentration of soluble DOX-TTPN and TTPN in the supernatant was measured using absorbance in UV280.
# [11] = target: TRAIL R1 (death receptor 4, DR4) on the surface of tumor cells (human, UniProt O00220 24-468); experiment: cell-based or functional assay
# [12] = target: TRAIL R2 (death receptor 5, DR5) on the surface of tumor cells (human, UniProt O14763 56-440); experiment: cell-based or functional assay
# [13] = target: T1, DR4-Fc chimeric protein (R&D systems 347-DR-100) (UniProt O00220 24-239); experiment: SPR, DR4-Fc captured on Protein A chip, 25° C., 1:1 Langmuir model
# T1 construct: Bought (R&D systems 347-DR-100); Captured on a Protein A sensor chip; also called TRAIL R1; death receptor 4; Fc part of the bought chimera not given
# Description: DR4 and DR5-fc chimeric proteins (R&D systems 347-DR-100, 631-T2-100) were immobilized on the surface of the Planar Protein A sensor chip (Reichert, 13206069) and the receptors were coated at a level of 300 to 500 resonance units. […] Each analyte was run at 50 μL/min using running and sample buffer (0.5 M Tris-HCl (pH 7.4), 150 mM NaCl, 0.005% Tween 20), and binding of the ligand to the receptor was performed and monitored in real time. For titration sensorgrams, a simple 1:1 Langmuir interaction model (A+B↔AB) was applied using the data analysis program Scrubber 2.0 (BioLogic Software, Australia, and KaleidaGraph Software, Australia) and CLAMP software.
# The affinity KD was determined from the formula of KD=kd/ka.
# DR5 [14] = target: T2, DR5 (Homo sapiens, UniProt O14763); experiment: SPR binding to immobilized DR5-Fc
# T2 construct: purchased R&D systems 631-T2-100
# Description: (§3) Binding experiments of TTPN and mTRAIL to TRAIL receptors DR4 and DR5 were analyzed at 25° C. using a surface plasmon resonance apparatus (SR7500 DC, Reichert Inc., NY, USA). DR4 and DR5-fc chimeric proteins (R&D systems 347-DR-100, 631-T2-100) were immobilized on the surface of the Planar Protein A sensor chip (Reichert, 13206069) and the receptors were coated at a level of 300 to 500 resonance units. SPR kinetic titrations were performed by adding 250 μl of TTPN and mTRAIL with different concentrations in the range of 1.56 to 400 nM and 0.1 to 25.6 μM, respectively, increasing by four times. Each analyte was run at 50 μL/min using running and sample buffer (0.5 M Tris-HCl (pH 7.4), 150 mM NaCl, 0.005% Tween 20), and binding of the ligand to the receptor was performed and monitored in real time. For titration sensorgrams, a simple 1:1 Langmuir interaction model (A+B↔AB) was applied using the data analysis program Scrubber 2.0 (BioLogic Software, Australia, and KaleidaGraph Software, Australia) and CLAMP software.
# (§4) The affinity KD was determined from the formula of KD=kd/ka. Results are based on representative sensorgrams obtained from saturation binding reactions averaged over at least three independent runs of SPR measurements (FIG. 31).
# [15] = within 21 days (Kih et al.); cited from earlier work
# HepG2 tumor [16] = experiment: TUNEL analysis of HepG2 tumor tissue; format: in vivo, mouse; details: 15th day after first injection
# Description: In the evaluation of the anti-tumor effect of the present invention, BALB/c nude male mice (6-7 weeks old) were used as an animal model. Particularly, HT29 cells (5×10^6) and HepG2 cells (5×10^6) were subcutaneously inoculated into the left dorsal flank of BALB/c nude mice, respectively. After a volume of tumors reached ˜80-100 mm^3, mice were randomly divided into the 14 following five treatment groups (6 mice/group); DOX-TTPNs, DOX-FTNs, free DOX, empty TTPNs, and buffer. Mice were intravenously injected five times, once every 2 days, and volume of tumors was determined as 1/2(Length×Width^2). Apoptotic cell death in tumor tissues was analyzed using TUNEL staining (In situ Cell Death Detection kit; Roche), and cells were stained with DAPI (4′,6-diamidino-2-phenylindole), as previously described (Kih et al., Biomaterials 180: 67-77, 2018). Apoptotic cells were visualized under a Nikon Eclipse Ti microscope (Nikon) and quantified as the number of TUNEL-positive cells per total number of cells using ImageJ software. […]
# (§5) In addition, to investigate whether tumor growth inhibition by TTPN is induced by apoptosis-inducing activity on tumor cells, tumor tissues from the treated mice were analyzed. On the 15th day after the first injection, mice were euthanized, and apoptosis of tumor tissues was analyzed using terminal deoxynucleotidyl transferase dUTP nick end labeling (TUNEL) staining.
# HepG2 tumor [17] = experiment: Antitumor efficacy, HepG2 xenograft; format: in vivo, mouse; details: i.v. every 2 days, TTPN 23 mg/kg, mTRAIL 12 mg/kg
# Description: In the evaluation of the anti-tumor effect of the present invention, BALB/c nude male mice (6-7 weeks old) were used as an animal model. Particularly, HT29 cells (5×10^6) and HepG2 cells (5×10^6) were subcutaneously inoculated into the left dorsal flank of BALB/c nude mice, respectively. After a volume of tumors reached ˜80-100 mm^3, mice were randomly divided into the 14 following five treatment groups (6 mice/group); DOX-TTPNs, DOX-FTNs, free DOX, empty TTPNs, and buffer. Mice were intravenously injected five times, once every 2 days, and volume of tumors was determined as 1/2(Length×Width^2). Apoptotic cell death in tumor tissues was analyzed using TUNEL staining (In situ Cell Death Detection kit; Roche), and cells were stained with DAPI (4′,6-diamidino-2-phenylindole), as previously described (Kih et al., Biomaterials 180: 67-77, 2018). Apoptotic cells were visualized under a Nikon Eclipse Ti microscope (Nikon) and quantified as the number of TUNEL-positive cells per total number of cells using ImageJ software. After 21 days from injecting tumor cells, tumor tissues were excised from the experimental mice, and cryo-sections (3.5 μm) were fixed with 10% neutral buffered formalin and paraffin-embedded tissue blocks.
# as §5
# DR4 = target: T3, DR4 (Homo sapiens, UniProt O00220); experiment: SPR binding to immobilized DR4-Fc; details: DR4-Fc immobilized, 25° C.
# T3 construct: purchased R&D systems 347-DR-100
# Description: as §3, §4
molecule,measurement,setting,value
"COc1cccc2c1C(=O)c1c(O)c3c(c(O)c1C2=O)C[C@@](O)(C(=O)CO)C[C@@H]3O[C@H]1C[C@H](N)[C@H](O)[C@H](C)O1 [free DOX, doxorubicin, reference compound]",decrease in XIAP levels compared with buffer treatment,XIAP,34 fold
same,cleaved caspase-3 (and PARP) expression,[1],little change
same,DR5 expression levels over time,DR5 [2],substantial increase in DR5 expression at 4 hours
same,dose at which side effects can be exhibited,[3],greater than 1 mg/kg
same,induction of early apoptosis,HT29 cells [4],ineffective in inducing apoptosis
same,TUNEL-positive tumor cells,HT29 tumor [5],0.07%
same,decrease of tumor volumes,HT29 tumor [6],no significant tumor-inhibition effect
same,cell death compared with controls,HT29 cells [7],36%
same,increase in PARP relative to buffer-treated controls (defined as 1),PARP,811 fold
B1,surviving tumor cells (Annexin V/PI double negative),"HepG2 cells [8]; HepG2, 0.4 nM",94.3%
same,surviving tumor cells (Annexin V/PI double negative),"HepG2 cells [8]; HepG2, 100 nM",82.9%
same,concentration at which Annexin V-positive cells were detected,"HepG2 cells [8]; HepG2, 24 hours (FIG. 20)",25 nM
same,IC50 relative to TTPN,HepG2 cells [9],30 times
same,stability in solution,[10]; 15 mg/mL in PBS buffer for 24 hours (FIG. 15),precipitated and aggregated rapidly
same,"amount in the soluble form, of the initial concentration","[10]; within 2 days, 10 mg/mL (FIG. 16)",57%
same,"IC50, cell viability of HepG2 cells (CCK-8, 24 hours)",[11],405 nM
same,"IC50, cell viability of HepG2 cells (CCK-8, 24 hours)",[12],405 nM
same,Kd,[13],247 nM
same,koff,[13],5.27e-05 s⁻¹
same,kon,[13],868 M⁻¹ s⁻¹
same,ka,DR5 [14]; 25° C.,1.48 (±0.12) · 10^3 M^−1 · S^−1
same,kd,DR5 [14]; 25° C.,3.87 (±1.13) · 10^−5 s^−1
same,Kd,DR5 [14]; KD=kd/ka,25.4 nM
same,fraction showing rapid aggregation,[15],~50%
same,TUNEL-positive tumor cells,HepG2 tumor [16],18.9%
same,inhibition of tumor volume,HepG2 tumor [17],25.98%
same,ka,DR4,8.68 (±7.12) · 10^2 M^−1 · S^−1
same,kd,DR4,5.27 (±2.14) · 10^−5 s^−1
